Substitutions are numbered along the chain they refer to.
T1: human GIP receptor (human) (UniProt P48546)
T1 sequence (looked up): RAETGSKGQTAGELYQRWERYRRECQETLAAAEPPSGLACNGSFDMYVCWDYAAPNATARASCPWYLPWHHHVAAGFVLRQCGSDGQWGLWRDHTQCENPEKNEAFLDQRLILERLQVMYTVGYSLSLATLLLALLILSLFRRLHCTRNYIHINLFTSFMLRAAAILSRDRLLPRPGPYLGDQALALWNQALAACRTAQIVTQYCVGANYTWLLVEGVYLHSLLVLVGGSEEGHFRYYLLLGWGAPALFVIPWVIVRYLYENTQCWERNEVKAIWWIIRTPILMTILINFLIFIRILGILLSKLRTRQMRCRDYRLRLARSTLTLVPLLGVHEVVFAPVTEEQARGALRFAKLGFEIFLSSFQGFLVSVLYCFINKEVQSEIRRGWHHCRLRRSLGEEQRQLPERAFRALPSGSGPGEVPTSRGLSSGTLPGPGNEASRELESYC

B1: Example 262 (peptide)
chain: YXQGTFTSDFSXXLDKKAQXAFIEWLLEGGPSSGAPPPEGX
modifications: synthetic construct; SITE 2: note = 2-Aminoisobutyric Acid; SITE 12: note = L-ornithine; SITE 13: note = alpha-methyl-leucine; SITE 17: note = Lysine is chemically modified through conjugation of the epsilon-amino group of the Lysine side chain with (2-[2-(2-Amino-ethoxy)-ethoxy]-acetyl)-(gamma-Glu)
B2: Example 234 (peptide)
chain: B1 chain with W25Y, P31X, E39G, X41S
modifications: Aib, Orn, αMeL, Hyp; lipidated Lys; C-terminal amide; synthetic construct; SITE 2: note = 2-Aminoisobutyric Acid; SITE 12: note = L-ornithine; SITE 13: note = alpha-methyl-leucine; SITE 17: note = Lysine is chemically modified through conjugation of the epsilon-amino group of the Lysine side chain with (2-[2-(2-Amino-ethoxy)-ethoxy]-acetyl)-(gamma-Glu)
B3: Example 236 (peptide)
chain: B1 chain with W25Y, P37X, E39G, X41S
modifications: Aib, Orn, αMeL, Hyp; acylated Lys; C-terminal amide; synthetic construct; SITE 2: note = 2-Aminoisobutyric Acid; SITE 12: note = L-ornithine; SITE 13: note = alpha-methyl-leucine; SITE 17: note = Lysine is chemically modified through conjugation of the epsilon-amino group of the Lysine side chain with (2-[2-(2-Amino-ethoxy)-ethoxy]-acetyl)-(gamma-Glu)
B4: Example 245 (peptide)
chain: B1 chain with W25Y, G29X, P31H, E39S, X41S
modifications: Aib, Orn, αMeL; lipidated Lys; C-terminal amide; synthetic construct; SITE 2: note = 2-Aminoisobutyric Acid; SITE 12: note = L-ornithine; SITE 13: note = alpha-methyl-leucine; SITE 17: note = Lysine is chemically modified through conjugation of the epsilon-amino group of the Lysine side chain with (gamma-Glu)-(2-[2-(2-Amino-ethoxy)-ethoxy]-acetyl)
B5: Example 240 (peptide)
chain: B1 chain with W25Y, G29X, P31E, E39S, X41S
modifications: non-natural residues; lipidated Lys; C-terminal amide; synthetic construct; SITE 2: note = 2-Aminoisobutyric Acid; SITE 12: note = L-ornithine; SITE 13: note = alpha-methyl-leucine; SITE 17: note = Lysine is chemically modified through conjugation of the epsilon-amino group of the Lysine side chain with (2-[2-(2-Amino-ethoxy)-ethoxy]-acetyl)-(gamma-Glu)
B6: Example 218 (peptide)
chain: YXQGTFTSDFSXXLDKKAQXAFIEYLIEXGESSGAPPPSGS
modifications: acylated Lys, C-terminal amide, non-natural residues; synthetic construct; SITE 2: note = 2-Aminoisobutyric Acid; SITE 12: note = L-ornithine; SITE 13: note = alpha-methyl-leucine; SITE 17: note = Lysine is chemically modified through conjugation of the epsilon-amino group of the Lysine side chain with (2-[2-(2-Amino-ethoxy)-ethoxy]-acetyl)-(gamma-Glu)
B7: Example 267 (peptide)
chain: B1 chain with P31X, E39S, X41E
modifications: synthetic construct; SITE 2: note = 2-Aminoisobutyric Acid; SITE 12: note = L-ornithine; SITE 13: note = alpha-methyl-leucine; SITE 17: note = Lysine is chemically modified through conjugation of the epsilon-amino group of the Lysine side chain with (2-[2-(2-Amino-ethoxy)-ethoxy]-acetyl)-(gamma-Glu)
B8: Example 229 (peptide)
chain: B6 chain
modifications: non-natural residues; lipidated Lys AEEA-γGlu-C18 diacid; C-term amide; synthetic construct; SITE 2: note = 2-Aminoisobutyric Acid; SITE 12: note = L-ornithine; SITE 13: note = alpha-methyl-leucine; SITE 17: note = Lysine is chemically modified through conjugation of the epsilon-amino group of the Lysine side chain with (2-[2-(2-Amino-ethoxy)-ethoxy]-acetyl)-(gamma-Glu)
B9: Example 263 (peptide)
chain: B1 chain with G29A, P31S, E39S, X41T
modifications: synthetic construct; SITE 2: note = 2-Aminoisobutyric Acid; SITE 12: note = L-ornithine; SITE 13: note = alpha-methyl-leucine; SITE 17: note = Lysine is chemically modified through conjugation of the epsilon-amino group of the Lysine side chain with (2-[2-(2-Amino-ethoxy)-ethoxy]-acetyl)-(gamma-Glu)
B10: Example 213 (peptide)
chain: B1 chain with W25Y, G29A, E39S, X41T
modifications: non-natural residues, AEEA-γGlu-C18 diacid acylation; synthetic construct; SITE 2: note = 2-Aminoisobutyric Acid; SITE 12: note = L-ornithine; SITE 13: note = alpha-methyl-leucine; SITE 17: note = Lysine is chemically modified through conjugation of the epsilon-amino group of the Lysine side chain with (2-[2-(2-Amino-ethoxy)-ethoxy]-acetyl)-(gamma-Glu)
B11: Example 228 (peptide)
chain: B6 chain with S41E
modifications: non-natural residues, acylated Lys, C-terminal amide; synthetic construct; SITE 2: note = 2-Aminoisobutyric Acid; SITE 12: note = L-ornithine; SITE 13: note = alpha-methyl-leucine; SITE 17: note = Lysine is chemically modified through conjugation of the epsilon-amino group of the Lysine side chain with (2-[2-(2-Amino-ethoxy)-ethoxy]-acetyl)-(gamma-Glu)
B12: Example 261 (peptide)
chain: B1 chain with W25Y, E39G
modifications: synthetic construct; SITE 2: note = 2-Aminoisobutyric Acid; SITE 12: note = L-ornithine; SITE 13: note = alpha-methyl-leucine; SITE 17: note = Lysine is chemically modified through conjugation of the epsilon-amino group of the Lysine side chain with (2-[2-(2-Amino-ethoxy)-ethoxy]-acetyl)-(gamma-Glu)
B13: Example 215 (peptide)
chain: B6 chain with X12K, X29G
modifications: Lys acylated with AEEA-γGlu-C18 diacid; non-natural residues; C-amide; synthetic construct; SITE 2: note = 2-Aminoisobutyric Acid; SITE 13: note = alpha-methyl-leucine; SITE 17: note = Lysine is chemically modified through conjugation of the epsilon-amino group of the Lysine side chain with (2-[2-(2-Amino-ethoxy)-ethoxy]-acetyl)-(gamma-Glu)-CO-(CH2) 16-CO2H; SITE 20: n
B14: Example 220 (peptide)
chain: B6 chain with X12R, X29G
modifications: non-natural residues; lysine acylated with AEEA linker C18 diacid; C-amide; synthetic construct; SITE 2: note = 2-Aminoisobutyric Acid; SITE 13: note = alpha-methyl-leucine; SITE 17: note = Lysine is chemically modified through conjugation of the epsilon-amino group of the Lysine side chain with (2-[2-(2-Amino-ethoxy)-ethoxy]-acetyl)-(gamma-Glu)-CO-(CH2) 16-CO2H; SITE 20: n
B15: Example 221 (peptide)
chain: B6 chain with X12R
modifications: C-terminal amide; lysine acylated with AEEA-γ-Glu-C18 diacid; synthetic construct; SITE 2: note = 2-Aminoisobutyric Acid; SITE 13: note = alpha-methyl-leucine; SITE 17: note = Lysine is chemically modified through conjugation of the epsilon-amino group of the Lysine side chain with (2-[2-(2-Amino-ethoxy)-ethoxy]-acetyl)-(gamma-Glu)-CO-(CH2) 16-CO2H; SITE 20: n
B16: Example 216 (peptide)
chain: B6 chain with X12K
modifications: Aib, αMeL; K acylated AEEA-γGlu-C18 diacid; C-amide; synthetic construct; SITE 2: note = 2-Aminoisobutyric Acid; SITE 13: note = alpha-methyl-leucine; SITE 17: note = Lysine is chemically modified through conjugation of the epsilon-amino group of the Lysine side chain with (2-[2-(2-Amino-ethoxy)-ethoxy]-acetyl)-(gamma-Glu)-CO-(CH2) 16-CO2H; SITE 20: n

These binders were tested against T1, human GIP receptor (human) (assay: cell-based or functional assay).

Binder	Relative cAMP EC50 [nM]	cAMP Rel EC50 (in the presence of 1% HSA) [nM]	cAMP Rel EC50, nM (1% HSA) [nM]
B1	0.232	40.4	–
B2	0.322	–	31.1
B3	0.309	–	24.8
B4	0.0684	–	10.5
B5	0.214	–	10.4
B6	0.0853	–	–
B7	0.279	55.5	–
B8	0.179	–	–
B9	0.169	25.7	–
B10	0.124	–	–
B11	0.147	–	–
B12	0.29	38.4	–
B13	0.418	–	87.3
B14	0.411	–	87.1
B15	0.105	–	–
B16	0.0887	–	12

The binders below were run against hGLP-1R (Homo sapiens, UniProt P43220) (assay: cell-based or functional assay).
Sequence of hGLP-1R (P43220 24-463): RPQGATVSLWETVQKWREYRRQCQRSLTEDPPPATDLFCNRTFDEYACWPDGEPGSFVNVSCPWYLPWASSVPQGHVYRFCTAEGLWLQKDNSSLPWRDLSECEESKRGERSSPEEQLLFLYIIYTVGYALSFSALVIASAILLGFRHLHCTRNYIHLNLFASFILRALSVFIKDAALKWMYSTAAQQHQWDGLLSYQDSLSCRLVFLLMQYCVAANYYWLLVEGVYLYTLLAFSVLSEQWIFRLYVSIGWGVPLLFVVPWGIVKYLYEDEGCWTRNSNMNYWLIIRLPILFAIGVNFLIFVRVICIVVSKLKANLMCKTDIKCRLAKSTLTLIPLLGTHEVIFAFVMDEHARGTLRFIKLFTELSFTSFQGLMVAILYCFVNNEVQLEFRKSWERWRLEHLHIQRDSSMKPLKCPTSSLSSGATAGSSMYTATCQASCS

Binder	Relative cAMP EC50 [nM]	cAMP Rel EC50 (in the presence of 1% HSA) [nM]	cAMP Rel EC50, nM (1% HSA) [nM]
B1	4.39	400	–
B2	4.72	–	604
B3	3.33	–	261
B4	5.99	–	540
B5	3.62	–	396
B6	0.76	–	–
B7	5.86	1020	–
B8	1.58	–	–
B9	1.32	257	–
B10	1.9	–	–
B11	1.52	–	–
B12	3.12	383	–
B13	0.803	–	162
B14	1.01	–	189
B15	0.629	–	–
B16	0.52	–	90.6

What follows are binders tested against human glucagon receptor (human) (UniProt P47871) (assay: cell-based or functional assay).
Sequence of human glucagon receptor (human) (P47871 26-477): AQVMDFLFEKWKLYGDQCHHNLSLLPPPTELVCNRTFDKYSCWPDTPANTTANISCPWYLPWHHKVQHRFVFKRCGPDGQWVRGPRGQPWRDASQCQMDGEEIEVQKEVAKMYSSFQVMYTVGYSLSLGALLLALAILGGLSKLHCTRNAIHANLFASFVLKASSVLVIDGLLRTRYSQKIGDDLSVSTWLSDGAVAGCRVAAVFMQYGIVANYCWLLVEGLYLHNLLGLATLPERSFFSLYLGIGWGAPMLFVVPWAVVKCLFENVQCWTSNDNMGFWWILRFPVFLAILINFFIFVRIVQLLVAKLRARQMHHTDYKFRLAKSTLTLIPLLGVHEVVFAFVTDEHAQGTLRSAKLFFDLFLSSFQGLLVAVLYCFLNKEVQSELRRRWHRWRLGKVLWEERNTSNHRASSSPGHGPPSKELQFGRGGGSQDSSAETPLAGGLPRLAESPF

Binder	Relative cAMP EC50 [nM]	cAMP Rel EC50 (in the presence of 1% HSA) [nM]	cAMP Rel EC50, nM (1% HSA) [nM]
B1	9.77	720	–
B2	7.87	–	702
B3	2.23	–	309
B4	7.07	–	1120
B5	2.02	–	521
B6	7.89	–	–
B7	5.74	1380	–
B8	2.3	–	–
B9	7.53	893	–
B10	3.61	–	–
B11	1.38	–	–
B12	5.49	520	–
B13	9.77	–	1510
B14	11.2	–	1990
B15	11.3	–	–
B16	2.7	–	895
